Results: the supplement of paper PMC11865577

Columns and labels:
Assay in all cases: pull-down binding Z-score (relative to library population); higher = stronger binding
[1] = tested on: G-clamp-N3 (biotin conjugate); conditions: RNA library: Library-1 (pre-miRNA loops + repeats)
In short: (§1)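 Heat-folded RNA library (1 μg, Cy5 or Cy3 end label, phosphate/NaCl/KCl buffer) was captured for 60 min at 25 °C on streptavidin beads displaying 100 pmol of biotin-conjugated small molecule, then washed three times. The bound fraction, eluted in hot SDS, was hybridised to a DNA barcode microarray at 55.5 °C for 20 h. Z-scores for binding were taken against the library mean and standard deviation after beads-only subtraction and trimmed averaging of replicate barcoded probes.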

[2] = tested on: TO-3-N3 (biotin conjugate); conditions: RNA library: Library-2
In short: as §1

[3] = tested on: TO-3-N3-2 (biotin conjugate); conditions: RNA library: Library-2
In short: as §1

TO-N3 (biotin conjugate) = conditions: RNA library: Library-2
In short: as §1

[4] = tested on: TO-N3-2 (biotin conjugate); conditions: RNA library: Library-2
In short: as §1

Sequence | pull-down binding Z-score [1] | pull-down binding Z-score [2] | pull-down binding Z-score [3] | pull-down binding Z-score (TO-N3 (biotin conjugate)) | pull-down binding Z-score [4]
UGGUGGUGAAUUCAUGAGUCGCCA [hsa-mir-3115] | 0.372 | -0.509 | -0.498 | -0.671 | -0.62
UGGUUACGUGUUUGAUGGUUAAUCA [hsa-mir-376a-2] | 1.55 | -0.155 | -0.0388 | -0.0926 | -0.0517
UGGUUAGCUUUUUUUUUUUUUUGAGAUGGAGUCUGGCUC [hsa-mir-8086] | -0.608 | -0.554 | 0.519 | -0.772 | -0.598
UGGUUGAAUAUGUGAAUGGCAUCG [hsa-mir-449a] | 0.694 | -0.0496 | 0.0695 | 0.153 | 0.601
UGGUUUCACUA [hsa-mir-3713] | -1.64 | 0.624 | -0.427 | 0.378 | -0.526
UGGUUUGACACAGAGCUAAAUCA [hsa-mir-5007] | -0.866 | 0.00148 | 0.0372 | 0.596 | -0.172
UGUAAAAUGUAAUAACAUUUCUUAUGUUUAAAACACUUUACA [hsa-mir-4801] | -0.257 | -0.755 | -0.401 | -0.783 | -1.14
UGUAAAUAACUACAAUUCUCUUAACUCCGUAGCAGUUGC [hsa-mir-7844] | -1.5 | -0.267 | -0.0721 | -0.11 | 0.177
UGUAAGUUUGCGAUGAGACACUACA [hsa-mir-144] | -0.844 | 0.0531 | 0.297 | 0.405 | 0.341
UGUACAGGUGAGCGGAUGUUCUGCACA [hsa-mir-3120] | 0.0407 | 1.53 | 0.681 | 1.67 | 1.57
UGUACGCUUUAUUUGUGACGUAGG [hsa-mir-1197] | -0.171 | -0.438 | -0.0204 | -0.195 | 0.0488
UGUAUAGUAUUAUUCAAUACC [hsa-mir-1912] | 0.737 | -0.222 | -0.0289 | -0.445 | -0.694
UGUAUAUAGCAUAUGUGUAUACAUACACACACACACACACACACACACA [hsa-mir-8485] | -1.14 | 0.396 | -0.16 | 0.167 | -0.143
UGUAUGUGUAAAUACAUAUCCACACA [hsa-mir-4789] | -1.45 | 0.0268 | -0.00888 | -0.285 | -0.589
UGUAUUUUUCAGCAAGGCAAGGGCUUUGAUGUCUUGUA [hsa-mir-8065] | -0.314 | -0.583 | -0.132 | -0.402 | -0.0538
UGUCAUUACUUUCAAUGGCA [hsa-mir-548h-2] | 0.222 | -0.726 | -0.4 | -0.978 | -1.22
UGUCAUUACUUUUAACUGUA [hsa-mir-548h-5] | -0.935 | 1.2 | 0.219 | 1.07 | -0.469
UGUCAUUACUUUUAAUGGUA [hsa-mir-548h-1] | -1.35 | -0.328 | -0.357 | -0.56 | -1.24
UGUCAUUGAAAGUAAUAGCA [hsa-mir-548h-3] | -1.07 | -0.165 | -0.0124 | -0.141 | -0.319
UGUCGUAGAAAGUAAUGGCA [hsa-mir-548l] | 0.662 | 0.0469 | -0.0955 | -0.189 | -0.387
UGUCUUGUAGCCAGGAUAUUGUUUUAAAGAA [hsa-mir-4668] | -0.739 | -0.404 | 0.00983 | -0.338 | -0.355
UGUCUUGUGUCUGUAAGUAU [hsa-mir-1275] | -0.561 | -0.619 | -0.189 | -0.413 | -0.00915
UGUCUUUUUUUUUUUCUGAGACA [hsa-mir-1273c] | -0.128 | -0.718 | 0.127 | -1.21 | -1.36
UGUGACCUGGAGCAGCUCAGGAGGGCUUCCUGGGUGAGGUGGCAGGUUACA [hsa-mir-4311] | 2.01 | 0.566 | 0.183 | 1.08 | 1.69
UGUGAGAGCUACUAAGUCUUAUA [hsa-mir-8076] | 0.772 | 0.0311 | -0.223 | -0.162 | -0.596

Sequence | pull-down binding Z-score [1] | pull-down binding Z-score [2] | pull-down binding Z-score [3] | pull-down binding Z-score (TO-N3 (biotin conjugate)) | pull-down binding Z-score [4]
UGUGCCCCGUACCGGACAGG [hsa-mir-7160] | -1.03 | -0.0418 | -0.0308 | 0.611 | 1.21
UGUGCCUGCCUUCGAAGUGCACGGCAGG [hsa-mir-4297] | -0.529 | 0.105 | 0.00697 | 0.519 | 0.753
UGUGCCUUGCCUUUCCUUUGGCACA [hsa-mir-4438] | 0.155 | -0.0269 | -0.183 | -0.0545 | -0.0304
UGUGGCAGUGGCAGAGGUCGCUACA [hsa-mir-6856] | 1.12 | 0.436 | 0.0517 | 0.704 | 1.13
UGUGGCCUGGGGGUUGAGGACCCCUGCUCUA [hsa-mir-645] | 1.32 | 0.874 | 0.303 | 1.74 | 2.75
UGUGGCCUUUUUGCCUUUUCUAAAGGCCACAU [hsa-mir-1250] | 0.00873 | -0.234 | -0.241 | -0.489 | -0.551
UGUGGUCACCCACUCU [hsa-mir-4316] | -0.668 | -0.237 | -0.0165 | 0.0225 | 0.297
UGUGGUGGGUGGUGGCCUGCGGUGAGCAGGGCCCUCA [hsa-mir-1228] | 0.921 | 1.6 | 1.08 | 2.36 | 2.1
UGUGGUUGGGGCCAUGGCGGGUGGGCAGCCCAGCCUCUGAGCCUUCCU [hsa-mir-1238] | -0.179 | 2.04 | 1.74 | 2.76 | 2.37
UGUGUGCUGAGAAAAUUCACACA [hsa-mir-5580] | -0.421 | 0.00215 | 0.149 | -0.125 | -0.274
UGUGUGUACUCACAGCCCCUCACACA [hsa-mir-942] | -0.624 | -0.301 | -0.262 | -0.432 | -0.11
UGUGUGUCGCUCCGGGUCCACG [hsa-mir-574] | 0.438 | 0.0307 | -0.0762 | 0.516 | 1.25
UGUGUUCAGUGGAACCAAGGUAAACACA [hsa-mir-624] | 1.58 | 1.29 | 0.95 | 1.56 | 1.22
UGUUAAGGCAUGUUCAGGAACA [hsa-mir-1265] | 2.1 | -0.0763 | 0.401 | 0.28 | 0.652
UGUUAGUGUUCAAGUCUACA [hsa-mir-4802] | 0.156 | -0.747 | -0.398 | -0.509 | -0.255
UGUUCACUUUCUAUAUGAUGAAUA [hsa-mir-656] | -0.48 | -1.09 | -0.523 | -1.4 | -1.7
UGUUCAGUGGGAUUUGGAGA [hsa-mir-8061] | -0.118 | 0.542 | 0.152 | 0.645 | 0.449
UGUUCAUGUCUCUCUGUGCACAGGGGACGAGAGUCA [hsa-mir-4420] | 0.39 | -0.612 | -0.232 | -0.35 | 0.762
UGUUCAUUCACAUGAUCAUAAGUGGACA [hsa-mir-4643] | 0.373 | 0.535 | 0.169 | 0.388 | -0.251
UGUUCGCUUUAUUUAUGAUGAAUCA [hsa-mir-539] | 0.0951 | -0.769 | -0.121 | -0.916 | -1.01
UGUUCGUUUUGCUCAUGUCGAAUC [hsa-mir-487b] | -0.817 | -0.794 | -0.391 | -0.701 | -0.133
UGUUGACUGAAUAAUAAACA [hsa-mir-3139] | -1.29 | -0.946 | -0.319 | -1.23 | -0.846
UGUUGAGCGCAGUAAGACAACA [hsa-mir-3529] | 0.892 | -0.51 | -0.0511 | -0.482 | -0.0925
UGUUGGCAGCCCAAGAUGACA [hsa-mir-4686] | -0.568 | 0.375 | -0.0148 | 0.581 | 0.58
UGUUGGGGGGACA [hsa-mir-4262] | -0.216 | 2.24 | 1.63 | 1.67 | 0.707

Sequence | pull-down binding Z-score [1] | pull-down binding Z-score [2] | pull-down binding Z-score [3] | pull-down binding Z-score (TO-N3 (biotin conjugate)) | pull-down binding Z-score [4]
UGUUGGUUGAAGAUGCCUUUCAACA [hsa-mir-552] | 0.0946 | -0.807 | -0.396 | -0.937 | -0.598
UGUUUAACUCCUCUCCACGUGAACA [hsa-mir-499a] | -0.0505 | 0.828 | -0.0532 | 0.731 | 0.116
UGUUUAUGUUAUUUAUGGUUAAACA [hsa-mir-376c] | 0.239 | -0.655 | -0.269 | -0.887 | -0.967
UGUUUCUUUAAUGAGGACGAAACA [hsa-mir-329-1] | 1.67 | 0.65 | 0.302 | 0.46 | -0.326
UGUUUCUUUAUUGAGGACGAAACA [hsa-mir-329-2] | 0.973 | -0.144 | -0.343 | -0.5 | -0.89
UGUUUGUGUCUAAACUAUCAAACG [hsa-mir-122] | -0.679 | -0.183 | -0.158 | -0.332 | -0.625
UGUUUUUGCCAUUAAAAAUAAUGGCAUUAAAAGUAAUGGCAAAAACG [hsa-mir-548al] | -0.871 | -0.484 | -0.431 | -1.01 | -1.14
UUAAAUGUGUCAUUUAAAAAUUCAG [hsa-mir-1972-1_1972-2] | -1.87 | -0.0749 | 0.161 | -0.138 | -0.257
UUAACAUGUUGAGCAUUACUCAUGUUAG [hsa-mir-3684] | -0.319 | -0.527 | -0.175 | -0.597 | -0.162
UUAACCUAAAAUGAGAAGGCUAA [hsa-mir-633] | -1.29 | -0.0885 | -0.223 | -0.212 | -0.637
UUAAUGAGGCCAUAGA [hsa-mir-6863] | -0.397 | -0.374 | -0.277 | -0.328 | -0.294
UUACCCAACGUCUCUGAGUCUCGGUUUUGAGAGGGUGAGUAA [hsa-mir-7973-1] | 0.981 | 0.0875 | -0.0539 | 0.268 | 0.29
UUACUCACCCUCUCAAAACCGAGACUCAGAGACGUUGGGUAA [hsa-mir-7973-2] | -1.63 | -0.25 | 0.138 | -0.0759 | 0.271
UUACUGCAGGGAUCUUAGCAGUAC [hsa-mir-583] | -0.752 | 0.295 | 0.0351 | 0.303 | 0.435
UUAGCCCAGCAAUGGGAGAGUGCUAA [hsa-mir-4636] | 0.508 | 0.252 | 0.32 | 0.111 | 0.154
UUAUACCUGAUGCUCACGUAUAA [hsa-mir-208a] | -0.85 | 0.398 | -0.0463 | 0.187 | -0.742
UUAUCUGUCACCAGUCAGAUAACUGUCACCAGUCAGUUAA [hsa-mir-4764] | -0.644 | -0.842 | -0.324 | -0.684 | -0.396
UUAUGUUUCUGAUCCGAAUAUAA [hsa-mir-208b] | 0.538 | -0.229 | -0.345 | -0.483 | -0.679
UUAUUCAGAGAGGCUAGAUCCUCUGUGUUGAGAAGGAUCA [hsa-mir-433] | 0.503 | -0.385 | 0.23 | -0.151 | -0.0231
UUAUUUGAGAUGAGUUACAUCUUGGAGG [hsa-mir-1204] | -0.564 | 0.0122 | -0.295 | -0.0949 | -0.536
UUCACAGACUCUCCAAAAGUCUGAA [hsa-mir-4670] | -1.33 | -0.362 | -0.404 | -0.543 | -0.533
UUCAGAGUCAAUAUAAUUUUCUAG [hsa-mir-29a] | 0.0825 | 0.749 | 0.27 | 0.485 | -0.467
UUCAGAUUUUGGAACAUUUCGGAUUUUGGA [hsa-mir-1290] | 2.01 | -0.172 | -0.35 | -0.297 | -1.15
UUCAGCCUAAAGCAAUGAGAAGCCUCUGAAAGGCUGA [hsa-mir-1827] | -0.0259 | -0.198 | -0.0588 | 0.212 | 0.76
